Data as given in US20190233519A1.
pIC50, pKd: −log10 of the molar value.

Assays:
CTLA-4-His protein = CTLA-4-His protein (UniProt P16410); test: SPR, antibody captured by Fc, CTLA-4-His as analyte
[1] = target: biotin-labeled hCTLA-4/Fc protein (UniProt P16410); test: FACS competition, biotin hCTLA-4-Fc on CHO cells expressing human B7-1
biotin-labeled hCTLA-4/Fc protein, sequence (P16410 37-161): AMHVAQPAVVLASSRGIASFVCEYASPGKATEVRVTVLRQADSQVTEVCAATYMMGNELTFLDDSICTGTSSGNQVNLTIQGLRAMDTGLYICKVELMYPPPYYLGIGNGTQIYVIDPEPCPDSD

CTLA-4-His protein, sequence (P16410 37-161 limits assumed): as the sequence (P16410 37-161) above

ipilimumab (YERVOY®) (antibody)
pKd (CTLA-4-His protein): 7.76 | pIC50 [1]: 8.07
